Experimental data as given in paper doi:10.1101/2020.05.12.090381 (bioRxiv, 2020).
Where a chain is given by its changes, count along the chain named. Names and notes keep the numbering of the source. One block for each molecule: values may come before it.

Experiments:
[1] = target: LdcI-Dendra2_(T69A) (C-terminal fluorescent protein fusion of LdcI) (E. coli | not stated); test: negative stain EM
[2] = target: LdcI E445A/D447A/R468E (E. coli) (UniProt P0A9H3); test: negative stain EM
[3] = target: Dendra2_(T69A)-LdcI (N-terminal fluorescent protein fusion of LdcI) (not stated | E. coli); test: negative stain EM
LdcI R468E (E. coli) = LdcI R468E (E. coli) (UniProt P0A9H3); test: negative stain EM
[4] = target: LdcI R97E/R468E (E. coli) (UniProt P0A9H3); test: negative stain EM
negative stain EM [5] = target: the molecule itself; test: negative stain EM
negative stain EM [6] = target: the molecule itself; test: negative stain EM; remark: listed apart in the source
cryo-EM structure = target: the molecule itself; test: cryo-EM structure

stoichiometry N [1]: 10
Molecule: LdcI-Dendra2_(T69A) (C-terminal fluorescent protein fusion of LdcI)

stoichiometry N [2]: 10
Molecule: LdcI E445A/D447A/R468E (from UniProt P0A9H3 1-715) (enzyme)

stoichiometry N [3]: 2
Molecule: Dendra2_(T69A)-LdcI (N-terminal fluorescent protein fusion of LdcI)

stoichiometry N (LdcI R468E (E. coli)): 10
Molecule: LdcI R468E (from UniProt P0A9H3 1-715) (enzyme)

stoichiometry N [4]: 10
Molecule: LdcI R97E/R468E (from UniProt P0A9H3 1-715) (enzyme)

B1: LdcI H694A (enzyme, E. coli, UniProt P0A9H3 1-715, looked up)
chain: MNVIAILNHMGVYFKEEPIRELHRALERLNFQIVYPNDRDDLLKLIENNARLCGVIFDWDKYNLELCEEISKMNENLPLYAFANTYSTLDVSLNDLRLQISFFEYALGAAEDIANKIKQTTDEYINTILPPLTKALFKYVREGKYTFCTPGHMGGTAFQKSPVGSLFYDFFGPNTMKSDISISVSELGSLLDHSGPHKEAEQYIARVFNADRSYMVTNGTSTANKIVGMYSAPAGSTILIDRNCHKSLTHLMMMSDVTPIYFRPTRNAYGILGGIPQSEFQHATIAKRVKETPNATWPVHAVITNSTYDGLLYNTDFIKKTLDVKSIHFDSAWVPYTNFSPIYEGKCGMSGGRVEGKVIYETQSTHKLLAAFSQASMIHVKGDVNEETFNEAYMMHTTTSPHYGIVASTETAAAMMKGNAGKRLINGSIERAIKFRKEIKRLRTESDGWFFDVWQPDHIDTTECWPLRSDSTWHGFKNIDNEHMYLDPIKVTLLTPGMEKDGTMSDFGIPASIVAKYLDEHGIVVEKTGPYNLLFLFSIGIDKTKALSLLRALTDFKRAFDLNLRVKNMLPSLYREDPEFYENMRIQELAQNIHKLIVHHNLPDLMYRAFEVLPTMVMTPYAAFQKELHGMTEEVYLDEMVGRINANMILPYPPGVPLVMPGEMITEESRPVLEFLQMLCEIGAHYPGFETDIAGAYRQADGRYTVKVLKEESKK
binding result (negative stain EM [5]): binds

B2: LdcI R97E (enzyme, E. coli, UniProt P0A9H3 1-715, looked up)
chain: B1 chain with R97E, A694H
binding result (negative stain EM [5]): binds

B3: LdcI H694N (enzyme, E. coli, UniProt P0A9H3 1-715, looked up)
chain: B1 chain with A694N
binding result (negative stain EM [5]): binds

B4: LdcI-mGeosM (C-terminal fluorescent protein fusion of LdcI) (other)
chain: B1 chain with A694H
stoichiometry N (negative stain EM [6]): 10

B5: LdcI E445A/D447A (enzyme, E. coli, UniProt P0A9H3 1-715, looked up)
chain: B1 chain with E445A, D447A, A694H
binding result (negative stain EM [5]): binds

B6: E. coli inducible lysine decarboxylase LdcI, wild type (enzyme, UniProt P0A9H3 1-715, looked up)
chain: B1 chain with A694H
stoichiometry N (cryo-EM structure): 10

B7: mGeosM-LdcI (N-terminal fluorescent protein fusion of LdcI) (other)
chain: MSAIKPDMKIKLRMEGNVNGHHFVIDGDGTGKPFEGKQSMDLEVKEGGPLPFAFDILTTAFMYGNRVFAKYPDNIQDYFKQSFPKGYSWERSLTFEDGGICIARNDITMEGDTFYNKVRFYGTNFPANGPVMQKKTLKWEPSTEKMYVRDGVLTGDIHMALLLEGNAHYRCDSRTTYKAKEKGVKLPGYHFVDHCIEILSHDKDYNKVKLYEHAVAHSGLPDNARRMNVIAILNHMGVYFKEEPIRELHRALERLNFQIVYPNDRDDLLKLIENNARLCGVIFDWDKYNLELCEEISKMNENLPLYAFANTYSTLDVSLNDLRLQISFFEYALGAAEDIANKIKQTTDEYINTILPPLTKALFKYVREGKYTFCTPGHMGGTAFQKSPVGSLFYDFFGPNTMKSDISISVSELGSLLDHSGPHKEAEQYIARVFNADRSYMVTNGTSTANKIVGMYSAPAGSTILIDRNCHKSLTHLMMMSDVTPIYFRPTRNAYGILGGIPQSEFQHATIAKRVKETPNATWPVHAVITNSTYDGLLYNTDFIKKTLDVKSIHFDSAWVPYTNFSPIYEGKCGMSGGRVEGKVIYETQSTHKLLAAFSQASMIHVKGDVNEETFNEAYMMHTTTSPHYGIVASTETAAAMMKGNAGKRLINGSIERAIKFRKEIKRLRTESDGWFFDVWQPDHIDTTECWPLRSDSTWHGFKNIDNEHMYLDPIKVTLLTPGMEKDGTMSDFGIPASIVAKYLDEHGIVVEKTGPYNLLFLFSIGIDKTKALSLLRALTDFKRAFDLNLRVKNMLPSLYREDPEFYENMRIQELAQNIHKLIVHHNLPDLMYRAFEVLPTMVMTPYAAFQKELHGMTEEVYLDEMVGRINANMILPYPPGVPLVMPGEMITEESRPVLEFLQMLCEIGAHYPGFETDIHGAYRQADGRYTVKVLKEESKK
stoichiometry N (negative stain EM [6]): 12
